Earlier results, collected in patent publication US20090215646A1, “SYSTEM AND METHOD OF ANALYTE DETECTION USING DIFFERENTIAL RECEPTORS” (The Board of Regents of the University of Texas Sy, priority 2005, published 2009).

B1: Ovalbumin: glycoprotein analyte obtained commercially (protein, UniProt P01012 2-386, looked up)
Ovalbumin: GSIGAASMEFCFDVFKELKVHHANENIFYCPIAIMSALAMVYLGAKDSTRTQINKVVRFDKLPGFGDSIEAQCGTSVNVHSSLRDILNQITKPNDVYSFSLASRLYAEERYPILPEYLQCVKELYRGGLEPINFQTAADQARELINSWVESQTNGIIRNVLQPSSVDSQTAMVLVNAIVFKGLWEKAFKDEDTQAMPFRVTEQESKPVQMMYQIGLFRVASMASEKMKILELPFASGTMSMLVLLPDEVSGLEQLESIINFEKLTEWTSSNVMEERKIKVYLPRMKMEEKYNLTSVLMAMGITDVFSSSANLSGISSAESLKISQAVHAAHAEINEAGREVVGSAEAGVDAASVSEEFRADHPFLFCIKHIATNAVLFFGRCVSP

Conditions: isoelectric point
In the case of “Fetuin: glycoprotein analyte obtained commercially”, the pI is given as 4.5-4.9.
In the case of “Lysozyme: protein analyte obtained commercially”, the pI is listed as 9.6-11.
In the case of B1, the pI is given as 4.6.
